Experimental data as given in the RNAGym collection of RNA variant scans (doi:10.1093/molbev/msab373).

B1: Azoarcus group I ribozyme (parent)
chain: GUGCCUUGCGCCGGGAAACCACGCAAGGGAUGGUGUCAAAUUCGGCGAAACCUAAGCGCCCGCCCGGGCGUAUGGCAACGCCGAGCCAAGCUUCGGCGCCUGCGCCGAUGAAGGUGUAGAGACUAGACGGCACCCACCUAAGGCAAACGCUAUGGUGAAGGCAUAGUCCAGGGAGUGGCGAAAGUCACACAAACCGG

Variants of: B1
Assay: reverse-splicing fitness (ratio to wild type); higher = more active; in vitro selection; Mg2+ level not given
How it was run: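 An in vitro group I ribozyme library with randomized positions was T7-transcribed and gel-purified. In triplicate, 10 pmol RNA in EPPS pH 7.5 was reacted with 50 pmoles of a 30-nt RNA substrate for 1 h at 37 °C across several added MgCl2 levels (1–48 mM), then stopped with EDTA. Products were reverse transcribed from a substrate-complementary primer, PCR-amplified and sequenced (HiSeq 4000). Fitness is a variant's read proportion after selection over that before, normalised to wild type.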

In order of falling reverse-splicing fitness:
1. C82G A111U A145U U176C  0.246
2. C82G A111U A145U C150U  0.239
3. C82G A111U A145U U176A  0.211
4. C82G A111U A145U U176G  0.0842
5. C82G A111U A145C C150U U176C  0.0544
6. C82G A111U A145C C150U U176A  0.0473
7. C82G A111U A145U C150G  0.0323
8. C82G A111U A145U C150A U176C  0.0315
9. C82G A111U A145U C150A  0.0284
10. C82G A111U A120U A145U C150U  0.0274
11. C82G A111U A145G C169G U176C  0.0258
12. C82G A111U A145U C150A U176A  0.0235
13. C82G A111U A145C C150A C169G U176A  0.0227
14. C82G A111U A145C C150U U176G  0.0188
15. C82G A111U A145G C169G U176A  0.0187
16. C82G A111U A120U A145G U176C  0.0173
17. C82G A111U A145G C150A C169U U176A  0.0166
18. C82G A111U A145C C150A C169G U176C  0.0155
19. C82G A111U A145G C150A C169U U176C  0.0149
20. C82G A111U A145U C169U U176A  0.0146
21. C82G A111U A145U C150U C169G U176C  0.0142
22. C82G A111U A145U C150U C169U U176A  0.0142
23. C82G A111U A145U C150U C169U U176C  0.0136
24. C82G A111U A145G C150G C169U U176C  0.0134
25. C82G A111U A145U C150U C169G U176A  0.0132
26. C82G A111U A145U C169U U176C  0.0128
27. C82G A111U A145G C150G C169U U176A  0.0125
28. C82G A111U A120U A145G U176A  0.0121
29. C82G A111U A145U C150G C169U U176C  0.0115
30. C82G A111U A145U C150A U176G  0.0115
31. C82G A111U A145C C150G C169U U176C  0.0102
32. C82G A111U A145C C150G C169G U176A  0.00943
33. C82G A111U A145C C150G C169U U176A  0.00891
34. C82G A111U A120U C150A U176C  0.00858
35. C82G A111U A145U C150G C169U U176A  0.00836
36. C82G A111U A145U C150G C169G U176A  0.0083
37. C82G A111U A145G C150G C169U U176G  0.00808
38. C82G A111U A145G C150A C169U U176G  0.00791
39. C82G A111U A120U A145U C150G  0.00782
40. C82G A111U A145C C150G C169G U176C  0.00772
41. C82G A111U A120U C150A U176A  0.00758
42. C82G A111U A120U A145U C150A  0.00721
43. C82G A111U A145C C150A C169G U176G  0.00716
44. C82G A111U A145U C150G C169U U176G  0.00664
45. C82G A111U A145U C150U C169G U176G  0.00659
46. C82G A111U A145U C150G C169G U176G  0.00649
47. C82G A111U A145U C150G C169G U176C  0.00646
48. C82G A111U A145C C150G C169U U176G  0.00634
49. C82G A111U A145U C150U C169U U176G  0.00609
50. C82G A111U A120U C150A C169U U176A  0.00604
51. C82G A111U A145C C150G C169G U176G  0.00602
52. C82G A111U A120U A145U C150G U176C  0.006
53. C82G A111U A145G C169G U176G  0.00557
54. C82G A111U A145U C169U U176G  0.00509
55. C82G A111U A120U C150A C169U U176C  0.00482
56. C82G A111U A120U A145G C169U U176C  0.004
57. C82G A111U A120U A145G C169U U176A  0.00386
58. C82G A111U A120U C169G U176C  0.00385
59. C82G A111U A120U C150A U176G  0.00383
60. C82G A111U A120U C169G U176A  0.00374
61. C82G A111U A120U A145U C150G U176A  0.00373
62. C82G A111U A120U A145U C150U C169U U176C  0.00369
63. C82G A111U A120U A145U C150A C169A U176A  0.00349
64. C82G A111U A120U A145G U176G  0.00338
65. C82G A111U A120U A145U C150A C169G U176A  0.00335
66. C82G A111U A120U A145U C150U C169U U176A  0.00325
67. C82G A111U A120U A145U C150A C169U U176A  0.00313
68. C82G A111U A120U A145U C150A C169G U176C  0.003
69. C82G A111U A120U A145U C150G C169U U176C  0.0029
70. C82G A111U A120U A145U C150G C169U U176G  0.00286
71. C82G A111U A120U A145U C150G C169U U176A  0.00286
72. C82G A111U A120U A145U C150U C169A U176A  0.00283
73. C82G A111U A120U A145U C150A C169U U176C  0.00276
74. C82G A111U A120U A145U C150U C169A U176C  0.0027
75. C82G A111U A120U A145U C150A C169A U176C  0.00255
76. C82G A111U A120U A145U C150U C169A U176G  0.00252
77. C82G A111U A120U A145U C150G U176G  0.00246
78. C82G A111U A120U C150A C169U U176G  0.00236
79. C82G A111U A120U A145U C150U C169U U176G  0.0023
80. C82G A111U A120U A145U C150A C169A U176G  0.00209
81. C82G A111U A120U A145G C169U U176G  0.00203
82. C82G A111U A120U A145U C150A C169U U176G  0.00195
83. C82G A111U A120U A145U C150A C169G U176G  0.00186
84. C82G A111U A120U C169G U176G  0.00175
